According to PMC314469, “Protein Interaction Networks by Proteome Peptide Scanning” (PLoS Biology, 2004):

T1: Abp1 SH3 (ABP1_YEAST), P15891
T1 chain: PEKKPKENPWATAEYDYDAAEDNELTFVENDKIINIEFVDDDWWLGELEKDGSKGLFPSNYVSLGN

B1: YDR394W 319-331 (peptide)
chain: NRADTLDPALLRP
B2: YNL034W 542-555 (peptide)
chain: NSAPQLTVPEPSKP
B3: YOL148C 556-568 (peptide)
chain: NNNNLDKPKVKRP
B4: YGR270W 562-574 (peptide)
chain: NRPDAVDPALRRP
B5: YJR140C 1438-1450 (peptide)
chain: NLVNIWKPDFERP
B6: YOR188W 1010-1022 (peptide)
chain: NNPPQMVPKGVRP
B7: YDL126C 634-646 (peptide)
chain: NRPDQIDPAILRP
B8: YMR067C 315-328 (peptide)
chain: NMPFTLNQSHPFKP
B9: YLR201C 20-32 (peptide)
chain: NPIEHVKPIHIKP
B10: YLR397C 390-402 (peptide)
chain: NRPNSVDPALRRP
B11: YPR171W 329-342 (peptide)
chain: NLTTTSKPSLPEKP
B12: YJL087C 616-628 (peptide)
chain: NNNQQKTPKLIKP
B13: YGL048C 295-307 (peptide)
chain: NRLDILDPALLRP
B14: YNL034W 381-393 (peptide)
chain: NPSNKSIPFWKRP
B15: YMR020W 267-280 (peptide)
chain: NLRGRIEFQPPLKP
B16: YBR033W 382-395 (peptide)
chain: NKSKFTDMLDPEKP
B17: YPL070W 456-468 (peptide)
chain: NLGDIVTPTIQRP
B18: YBR182C 407-419 (peptide)
chain: NKTFFLKPPIGRP
B19: YCL014W 1345-1357 (peptide)
chain: NNPSNSIPKIEKP
B20: YBL084C 527-540 (peptide)
chain: NLANGLMDTMPNKP
B21: YML102W 307-319 (peptide)
chain: NRPAIRIPSLKKP
B22: YNL106C 1166-1179 (peptide)
chain: NPELEKLSVHPLKP
B23: YKL145W 356-368 (peptide)
chain: NRPNTLDPALLRP
B24: YOR198C 294-306 (peptide)
chain: NSLLVLDPTYVKP
B25: YDR527W 27-39 (peptide)
chain: NNSGTGFPELYKP
B26: YAL040C 532-545 (peptide)
chain: NLSVRSKRLFPVRP
B27: YCL054W 71-84 (peptide)
chain: NSLIIGVDIVPMKP
B28: YDR359C 196-208 (peptide)
chain: NSEMASLPISPRP
B29: YLL019C 65-78 (peptide)
chain: NSLDLNQADNPLRP
B30: YPL075W 339-351 (peptide)
chain: NLVQSIDPNHSKP
B31: YOR259C 328-340 (peptide)
chain: NRPDTLDPALLRP
B32: YML020W 157-170 (peptide)
chain: NPAPLTNTYIPYKP
B33: YDL240W 709-722 (peptide)
chain: NRMKIMMSMEPKKP
B34: YKR011C 56-68 (peptide)
chain: NLKIDSAPAYLKP
B35: YPL093W 23-35 (peptide)
chain: NRTQRKTPTVIRP
B36: YDR479C 205-217 (peptide)
chain: NQTPAQGPPLRRP
B37: YLL034C 677-689 (peptide)
chain: NRPDMIDPAMLRP
B38: YBR015C 261-274 (peptide)
chain: NLLLLDADNFPIKP
B39: YER109C 669-681 (peptide)
chain: NRNTLSTPEEKKP
B40: YAL042W 215-228 (peptide)
chain: NRIQGNLHFAPGKP
B41: YNL080C 288-301 (peptide)
chain: NRPSVSHSQSPKRP
B42: YFL049W 597-609 (peptide)
chain: NPVVATDPVAAKP

Molecular target: T1, Abp1 SH3 (ABP1_YEAST), P15891
Test: SPOT array

| normalised SPOT signal, Boehringer light units (BLU); mean over the file's lines of this peptide | Binder |
| --- | --- |
| 87.6 | B1 |
| 89.3 | B2 |
| 8720 | B3 |
| 53.9 | B4 |
| 130 | B5 |
| 1040 | B6 |
| 45.4 | B7 |
| 140 | B8 |
| 66.7 | B9 |
| 225 | B10 |
| 610 | B11 |
| 48.3 | B12 |
| 101 | B13 |
| 342 | B14 |
| 235 | B15 |
| 160 | B16 |
| 45.9 | B17 |
| 7480 | B18 |
| 108 | B19 |
| 33.5 | B20 |
| 5260 | B21 |

| normalised SPOT signal, Boehringer light units (BLU); mean over the file's lines of this peptide | Binder |
| --- | --- |
| 66.1 | B22 |
| 89.2 | B23 |
| 14.6 | B24 |
| 24.7 | B25 |
| 326 | B26 |
| 175 | B27 |
| 64.9 | B28 |
| 23.6 | B29 |
| 169 | B30 |
| 0 | B31 |
| 150 | B32 |
| 810 | B33 |
| 112 | B34 |
| 330 | B35 |
| 8650 | B36 |
| 19.2 | B37 |
| 169 | B38 |
| 201 | B39 |
| 253 | B40 |
| 704 | B41 |
| 79 | B42 |
